# Measured values from paper PMC6447637, “Ca^2+-dependent regulation of sodium channels NaV1.4 and NaV1.5 is controlled by the post-IQ motif” (Nature Communications, 2019).
# What was measured:
# Conditions in all cases: both partners purified
# [1] = molecular target: T1, calmodulin (full-length mammalian calmodulin, R. norvegicus CALM2) (R. norvegicus, UniProt P0DP30 1-149); experiment: ITC; Ca2+-saturating: CTerm (2–25 µM) in the sample cell, CaM, CaM12 or CaM34 (30–1000 µM) as titrant; 20 mM MOPS, 150 mM NaCl, 1 mM MgCl2, 50 µM EGTA with 1 mM CaCl2; VP-ITC, single binding site fit, one replicate
# T1 construct: full-length mammalian calmodulin, R. norvegicus CALM2, 100% amino acid identity with H. sapiens CaM, in pET24b; Ca2+-free (apo, 50 µM EGTA) and Ca2+-saturated ((Ca2+)4, 1 mM CaCl2) states are the same molecule; the assays tell them apart; also called CaM; CaM WT; source: E. coli BL21-CodonPlus RIL; for ITC expressed alone and purified (two Phenyl FF columns); for crystals co-expressed and …
# [2] = molecular target: T1, calmodulin (full-length mammalian …); experiment: ITC; Ca2+-free: CTerm (2–25 µM) in the sample cell, CaM (30–1000 µM) as titrant; 20 mM MOPS, 150 mM NaCl, 1 mM MgCl2, 50 µM EGTA; VP-ITC, single binding site fit, one replicate
# [3] = molecular target: T2, calmodulin (full-length mammalian, CALM2) (R. norvegicus, UniProt P0DP30 1-149); experiment: ITC; CaM species in the syringe, NaV CTerm in the cell; Ca2+-free: 20 mM MOPS, 150 mM NaCl, 1 mM MgCl2, 50 µM EGTA; VP-ITC; fitted to a single binding site per monomer, error of the fit; one replicate
# T2 construct: Full-length mammalian calmodulin (R. norvegicus CALM2; 100% amino acid identity with H. sapiens CaM), 148 residues; apo CaM and (Ca2+)4-CaM are the same protein without and with 1 mM CaCl2; the two conditions are two assays; also called CaM; WT CaM; source: E. coli BL21-CodonPlus RIL, purified (two Phenyl FF columns)
# [4] = molecular target: T2, calmodulin (full-length mammalian, …); experiment: ITC; CaM species in the syringe, NaV CTerm in the cell; Ca2+-saturating: 20 mM MOPS, 150 mM NaCl, 1 mM MgCl2, 50 µM EGTA with 1 mM CaCl2; VP-ITC; fitted to a single binding site per monomer, error of the fit; one replicate
Binder,Kd [1],Kd [2],Ka [3],Ka [4]
"NaV1.4 CTerm Short (residues 1599–1754), freed of CaM for ITC (domain or fragment, additional 7 residues at the C-terminus of the construct; source: E. coli BL21-CodonPlus RIL, co-expressed with CaM, purified (Glutathione Sepharose; CaM removed by a TFP and Ca2+ wash; eluted with glutathione; 70% pure)) ENFNVATEESSEPLGEDDFEMFYETWEKFDPDATQFIAYSRLSDFVDTLQEPLRIAKPNKIKLITLDLPMVPGDKIHCLDILFALTKEVLGDSGEMDALKQTMEEKFMAANPSKVSYEPITTTLKRKHEEVCAIKIQRAYRRHLLQRSMKQASYMYLTRAAAS",305 nM,114 nM,–,–
"NaV1.4 CTerm Long (residues 1599-1764) (domain or fragment, The text layer of the ITC plots in D1 (p5, p9); not shown: GST, N-terminal, kept) ENFNVATEESSEPLGEDDFEMFYETWEKFDPDATQFIAYSRLSDFVDTLQEPLRIAKPNKIKLITLDLPMVPGDKIHCLDILFALTKEVLGDSGEMDALKQTMEEKFMAANPSKVSYEPITTTLKRKHEEVCAIKIQRAYRRHLLQRSMKQASYMYRHSHDGSGDD",–,–,5.85e+07 M⁻¹,3.63e+06 M⁻¹
"NaV1.4 CTerm Long (residues 1599–1764), freed of CaM for ITC (domain or fragment, H. sapiens NaV1.4 (SCN4A) C-terminal domain, a.a; the protein may have carried GST in the titrations; source: E. coli BL21-CodonPlus RIL, co-expressed with CaM, purified (Glutathione Sepharose; CaM removed by a TFP and Ca2+ wash; eluted with glutathione; 70% pure)) ENFNVATEESSEPLGEDDFEMFYETWEKFDPDATQFIAYSRLSDFVDTLQEPLRIAKPNKIKLITLDLPMVPGDKIHCLDILFALTKEVLGDSGEMDALKQTMEEKFMAANPSKVSYEPITTTLKRKHEEVCAIKIQRAYRRHLLQRSMKQASYMYRHSHDGSGDD",275 nM,17 nM,–,–
